Reference: the supplement of paper PMC9876800

System: peptide library, one residue held at a place counted from the S/T acceptor
Assay: relative phosphorylation of the sub-library (ratio to the mean residue at this position); human; higher = residue favoured
Method in brief: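 Relative sub-library phosphorylation is a ratio to the mean residue at the same position. Purified recombinant kinases were incubated under kinase-specific conditions with biotinylated degenerate peptide sub-libraries, each fixing one residue at one position around a central Ser/Thr, using 50 μM peptide and 50 μM ATP spiked with γ-32P-ATP for 90 min. Spots captured on streptavidin membranes were phosphorimaged and quantified by densitometry.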

Chain of CAMK2D, construct: Full length (Q13557 whole entry, looked up): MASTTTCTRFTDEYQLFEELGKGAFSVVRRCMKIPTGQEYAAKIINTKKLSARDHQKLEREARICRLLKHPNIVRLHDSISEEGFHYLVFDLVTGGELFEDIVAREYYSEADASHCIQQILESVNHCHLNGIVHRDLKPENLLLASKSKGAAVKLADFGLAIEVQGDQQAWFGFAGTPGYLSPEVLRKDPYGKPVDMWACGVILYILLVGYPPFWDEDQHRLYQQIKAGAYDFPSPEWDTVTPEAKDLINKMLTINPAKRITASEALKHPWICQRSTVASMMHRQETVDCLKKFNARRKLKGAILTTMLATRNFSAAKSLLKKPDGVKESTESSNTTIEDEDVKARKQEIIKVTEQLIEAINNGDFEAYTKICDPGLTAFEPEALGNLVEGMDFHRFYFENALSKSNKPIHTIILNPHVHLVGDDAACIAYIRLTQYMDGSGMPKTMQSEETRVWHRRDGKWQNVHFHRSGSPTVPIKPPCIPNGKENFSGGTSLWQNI
Chain of CDKL1, construct: aa2-304 (Q00532 2-304, looked up): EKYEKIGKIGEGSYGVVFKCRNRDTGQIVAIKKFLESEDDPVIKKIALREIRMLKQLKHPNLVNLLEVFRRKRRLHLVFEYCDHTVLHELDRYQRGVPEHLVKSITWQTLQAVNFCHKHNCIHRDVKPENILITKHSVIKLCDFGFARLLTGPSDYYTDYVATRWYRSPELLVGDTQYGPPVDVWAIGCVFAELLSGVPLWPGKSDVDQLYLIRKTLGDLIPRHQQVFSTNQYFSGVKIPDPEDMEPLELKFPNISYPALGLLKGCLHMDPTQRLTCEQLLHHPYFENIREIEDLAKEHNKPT
Chain of CDK10, construct: Full length (Q15131 whole entry, looked up): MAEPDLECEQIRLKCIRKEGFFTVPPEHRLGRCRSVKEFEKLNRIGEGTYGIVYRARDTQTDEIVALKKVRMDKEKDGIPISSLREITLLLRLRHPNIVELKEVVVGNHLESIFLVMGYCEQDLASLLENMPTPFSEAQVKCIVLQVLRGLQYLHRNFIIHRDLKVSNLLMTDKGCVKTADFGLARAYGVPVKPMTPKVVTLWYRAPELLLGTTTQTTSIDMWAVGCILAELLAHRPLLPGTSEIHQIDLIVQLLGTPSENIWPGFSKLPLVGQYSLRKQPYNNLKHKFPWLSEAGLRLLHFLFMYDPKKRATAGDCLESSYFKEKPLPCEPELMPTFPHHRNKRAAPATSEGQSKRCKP
Chain of CAMK1, construct: Full length (Q14012 whole entry, looked up): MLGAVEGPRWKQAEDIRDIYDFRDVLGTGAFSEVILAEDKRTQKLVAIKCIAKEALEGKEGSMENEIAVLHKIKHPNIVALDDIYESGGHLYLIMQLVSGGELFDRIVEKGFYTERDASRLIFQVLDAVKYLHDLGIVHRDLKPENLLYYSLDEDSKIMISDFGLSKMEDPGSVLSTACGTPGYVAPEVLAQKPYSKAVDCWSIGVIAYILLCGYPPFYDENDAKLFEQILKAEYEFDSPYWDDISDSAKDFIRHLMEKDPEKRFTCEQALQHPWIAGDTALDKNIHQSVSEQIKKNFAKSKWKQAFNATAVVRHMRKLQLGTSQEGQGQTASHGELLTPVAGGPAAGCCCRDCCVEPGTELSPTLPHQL

CAMK1, construct: Full length (from UniProt Q14012)
relative phosphorylation
Conditions	at +1	at +2	at +3	at +4	at -1	at -2	at -3	at -4	at -5
A fixed	0.669	0.817	0.709	0.598	0.804	1.02	0.635	0.826	0.346
D fixed	0.448	0.609	1.01	0.758	0.925	0.25	0.157	0.285	0.205
E fixed	0.497	0.508	0.699	0.628	0.483	0.322	0.178	0.542	0.189
F fixed	2.41	1.16	1.44	1.44	0.637	0.398	0.201	0.833	1.56
G fixed	0.623	0.554	0.911	0.897	0.773	0.607	0.218	0.614	0.402
H fixed	0.834	1.26	1.23	0.911	1.17	0.757	0.603	0.942	0.527
I fixed	0.715	1.06	0.751	1.42	0.49	0.413	0.165	1.03	1.49
K fixed	1.35	1.13	0.881	0.821	1.87	2.03	2.38	2.62	0.663
L fixed	0.767	1.16	0.962	1.82	0.965	0.54	0.188	1.12	2.97
M fixed	1.21	0.986	0.938	1.37	1.01	1.33	0.252	1.13	1.39
N fixed	1.13	1.18	1.64	1.07	2.03	0.856	0.369	0.802	0.394
P fixed	0.263	0.598	0.75	1.21	1.31	0.245	0.274	0.575	1.54
Q fixed	1.44	1	1.14	1.01	1.23	2.24	0.784	1.11	0.976
R fixed	1.96	1.42	0.961	0.679	1.59	4.18	9.87	2.11	1.8
V fixed	0.758	0.857	0.663	0.732	0.504	0.469	0.177	1.01	0.676
W fixed	0.932	1.36	1.38	0.911	0.45	0.842	0.325	0.633	0.924
Y fixed	0.99	1.34	0.935	0.716	0.753	0.488	0.227	0.827	0.946
pThr fixed	0.649	0.596	0.601	0.682	0.288	0.264	0.201	0.389	0.248
pTyr fixed	0.654	1.94	0.848	0.605	0.604	0.361	0.473	0.445	0.461

CAMK2D, construct: Full length (from UniProt Q13557)
relative phosphorylation
Conditions	at +1	at +2	at +3	at +4	at -1	at -2	at -3	at -4	at -5
A fixed	0.696	0.903	1.09	1.13	1.05	1.26	0.926	1.07	0.966
D fixed	0.461	3.3	1.4	1.45	0.967	0.476	0.264	0.439	0.415
E fixed	0.719	2.31	1.46	1.41	0.674	0.625	0.316	0.691	0.378
F fixed	2.39	0.604	0.852	0.726	0.811	0.914	0.887	1.22	1.38
G fixed	0.609	1.06	1.51	1.38	1.17	1.41	0.814	1.03	0.827
H fixed	0.719	1.03	1.17	0.962	1.08	0.894	1.05	0.86	0.922
I fixed	1.93	0.599	0.699	0.705	0.699	0.547	0.575	0.946	1.11
K fixed	0.476	0.569	0.669	0.688	1.21	0.858	1.68	0.967	0.794
L fixed	1.44	0.553	0.894	0.686	0.893	0.62	0.626	1.03	1.7
M fixed	1.72	0.605	0.793	0.711	1.15	1.12	0.782	1.2	1.22
N fixed	0.705	1.17	0.981	1.03	1.23	0.956	0.689	0.707	0.597
P fixed	0.278	0.626	1.09	1.81	1.55	0.45	0.909	1.02	1.12
Q fixed	1.17	0.957	1.03	1	1.16	2.51	0.973	0.875	0.708
R fixed	0.5	0.716	0.61	0.549	0.882	1.02	3.93	1.09	1.03
V fixed	1.65	0.676	0.835	0.787	0.728	0.655	0.551	0.926	0.92
W fixed	0.636	0.619	0.977	1.1	0.7	1.74	1.19	1.66	1.68
Y fixed	0.9	0.702	0.963	0.88	1.05	0.949	0.844	1.27	1.24
pThr fixed	1.02	1.01	1.39	2.4	0.353	0.348	0.448	0.653	0.605
pTyr fixed	0.872	3.27	1.12	1.45	0.933	0.349	0.424	0.609	0.606

CDK10, construct: Full length (from UniProt Q15131)
relative phosphorylation
Conditions	at +1	at +2	at +3	at +4	at -1	at -2	at -3	at -4	at -5
A fixed	0.232	0.641	0.676	0.671	0.931	0.896	0.838	0.851	0.845
D fixed	0.124	0.342	0.305	0.505	0.378	0.311	0.302	0.355	0.357
E fixed	0.115	0.297	0.26	0.337	0.231	0.244	0.276	0.361	0.293
F fixed	0.303	0.554	0.721	0.643	0.669	0.667	0.635	0.782	1.02
G fixed	1.3	0.952	0.795	1.09	1.56	0.715	1.01	0.955	1.05
H fixed	0.235	1.22	1.23	1.37	0.915	0.821	1.11	1.13	1.08
I fixed	0.282	0.598	0.67	0.655	0.284	0.724	0.722	0.652	0.713
K fixed	0.397	3.05	1.66	2.1	2.08	1.64	1.66	2.23	2.24
L fixed	0.296	0.683	0.66	0.661	0.787	1.15	0.78	0.658	0.78
M fixed	0.32	0.572	0.618	0.638	1.01	1.06	0.776	0.831	0.757
N fixed	0.247	0.864	0.852	0.868	0.786	0.753	0.749	0.841	0.741
P fixed	11.8	0.782	1.13	1.02	1.58	2.09	0.88	1.08	0.97
Q fixed	0.294	0.967	0.874	1.24	0.859	0.958	0.874	0.973	0.911
R fixed	0.405	3.58	4.52	2.61	2.65	2.65	3.91	2.3	2.25
V fixed	0.245	0.515	0.716	0.691	0.408	0.731	0.625	0.628	0.605
W fixed	0.241	0.541	0.621	0.967	1.11	0.872	0.997	1.46	1.26
Y fixed	0.209	0.843	0.686	0.938	0.77	0.727	0.86	0.918	1.12
pThr fixed	0.506	0.924	0.88	0.879	0.602	0.737	0.853	0.941	0.789
pTyr fixed	0.461	0.367	0.508	0.431	0.375	0.388	0.538	0.559	0.537

CDKL1, construct: aa2-304 (from UniProt Q00532)
relative phosphorylation
Conditions	at +1	at +2	at +3	at +4	at -1	at -2	at -3	at -4	at -5
A fixed	1.42	0.825	0.9	0.849	0.875	0.874	0.724	0.985	0.964
D fixed	0.679	0.924	0.793	0.858	0.693	0.715	0.534	0.874	0.771
E fixed	0.721	0.803	0.747	0.766	0.67	0.739	0.538	0.917	0.809
F fixed	0.888	0.829	0.924	0.916	0.835	0.724	0.531	0.934	1.21
G fixed	1.15	0.764	0.865	1.04	1.56	1.01	0.617	1.01	1
H fixed	1.02	1.22	1.13	1.07	1.02	0.727	0.593	0.926	0.987
I fixed	0.732	0.881	0.865	0.856	0.644	0.96	0.537	0.883	0.961
K fixed	1.25	1.52	1.43	1.31	1.61	0.898	0.852	1.22	1.08
L fixed	0.755	0.898	0.928	0.939	0.988	0.909	0.549	0.909	0.976
M fixed	0.862	0.841	0.9	0.953	1.19	0.774	0.549	0.937	0.96
N fixed	0.871	1.05	1	1.08	1.01	0.778	0.585	0.925	0.919
P fixed	1.92	0.774	0.978	0.98	1.02	3.55	0.704	1.05	0.918
Q fixed	0.894	1.03	1.05	1.07	1.05	0.856	0.707	1.08	0.972
R fixed	1.33	2.02	1.63	1.47	1.44	1.21	7.35	1.54	1.63
V fixed	0.744	0.888	0.944	0.83	0.736	0.873	0.54	0.967	0.896
W fixed	0.819	0.808	0.899	1.09	0.768	0.71	0.539	0.944	0.889
Y fixed	0.941	0.931	1.02	0.907	0.884	0.698	0.55	0.899	1.06
pThr fixed	0.811	0.892	0.844	0.824	0.778	0.799	0.576	0.837	0.737
pTyr fixed	0.652	0.663	0.733	0.692	0.717	0.75	0.786	0.876	0.726
